The source of these data is patent publication US20260315572 (published 2026).

Starred links: 1 amine or outer side, 2 acyl side, 3 side chain; linkers in the order of their positions; H or OH if unused. Non-standard residues stand in square brackets, D forms with d. Groups on a side chain read outwards from the residue. No end group written: not given here. *: point of attachment. C20 diacid = O=C(O)CCCCCCCCCCCCCCCCCCC(=O)*; γGlu = O=C(O)[C@H](CCC(=O)[*:2])N[*:1]; AEEA = NCCOCCOCC(=O)O; Aib = CC(C)(N)C(=O)O Bounds are passed on as bounds.

In one assay the target is T1, hGIPR (human, UniProt P48546).
T1 chain: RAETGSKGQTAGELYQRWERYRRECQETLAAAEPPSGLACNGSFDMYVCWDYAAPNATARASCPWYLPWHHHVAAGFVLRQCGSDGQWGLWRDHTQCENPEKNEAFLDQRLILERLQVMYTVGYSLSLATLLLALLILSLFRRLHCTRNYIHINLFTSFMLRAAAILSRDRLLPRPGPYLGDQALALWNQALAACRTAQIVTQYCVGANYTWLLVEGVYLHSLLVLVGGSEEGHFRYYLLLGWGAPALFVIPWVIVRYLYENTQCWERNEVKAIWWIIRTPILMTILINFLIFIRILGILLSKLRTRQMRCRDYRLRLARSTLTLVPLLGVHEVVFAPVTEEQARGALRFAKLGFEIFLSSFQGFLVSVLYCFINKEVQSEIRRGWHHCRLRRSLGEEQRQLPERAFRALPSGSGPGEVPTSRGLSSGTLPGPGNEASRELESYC
The assay can be described thus: competition, [125I]-GIP radioligand.

The next assay addresses T2, hGLP-1R (human, UniProt P43220).
T2 chain: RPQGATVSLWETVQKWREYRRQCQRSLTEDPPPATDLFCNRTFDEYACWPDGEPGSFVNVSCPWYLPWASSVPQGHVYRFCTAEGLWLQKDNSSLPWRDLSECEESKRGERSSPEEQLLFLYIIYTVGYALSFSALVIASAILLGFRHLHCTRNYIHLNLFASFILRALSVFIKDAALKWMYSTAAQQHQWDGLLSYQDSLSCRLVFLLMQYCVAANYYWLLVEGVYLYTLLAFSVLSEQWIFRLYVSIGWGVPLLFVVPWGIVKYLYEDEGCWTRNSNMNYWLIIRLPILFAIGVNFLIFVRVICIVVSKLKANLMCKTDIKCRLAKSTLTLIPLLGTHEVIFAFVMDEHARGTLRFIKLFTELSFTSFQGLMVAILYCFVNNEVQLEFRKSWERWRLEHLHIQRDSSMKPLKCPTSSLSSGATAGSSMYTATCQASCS
As to the kind of experiment: competition, [125I]-GLP-1 radioligand.

The target in the next assay is hGCGR (human, UniProt P47871). As to the kind of experiment: competition, [125I]-glucagon radioligand.
Sequence of hGCGR (P47871 26-477): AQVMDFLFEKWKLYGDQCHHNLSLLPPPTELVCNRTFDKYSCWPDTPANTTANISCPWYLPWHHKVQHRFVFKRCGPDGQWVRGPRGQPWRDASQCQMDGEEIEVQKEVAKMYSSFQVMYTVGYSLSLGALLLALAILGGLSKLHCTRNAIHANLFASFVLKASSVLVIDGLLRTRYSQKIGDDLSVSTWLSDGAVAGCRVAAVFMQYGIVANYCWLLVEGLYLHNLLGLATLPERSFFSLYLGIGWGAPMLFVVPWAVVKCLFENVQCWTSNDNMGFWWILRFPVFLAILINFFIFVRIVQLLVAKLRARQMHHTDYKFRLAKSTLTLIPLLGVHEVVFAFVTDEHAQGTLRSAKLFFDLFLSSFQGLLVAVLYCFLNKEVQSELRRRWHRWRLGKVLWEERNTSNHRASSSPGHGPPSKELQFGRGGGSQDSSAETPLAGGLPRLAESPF

B1: Example 1 (peptide)
chain: Y[Aib]EGTFTSDYSI[Aib]LDKIAQK([AEEA-AEEA-γGlu-C20 diacid])AFVQWLIAGGP-OH
modifications: N-terminus assumed
SMILES: CC[C@H](C)[C@H](NC(=O)[C@H](CC(C)C)NC(=O)[C@H](Cc1c[nH]c2ccccc12)NC(=O)[C@H](CCC(N)=O)NC(=O)[C@@H](NC(=O)[C@H](Cc1ccccc1)NC(=O)[C@H](C)NC(=O)[C@H](CCCCNC(=O)COCCOCCNC(=O)COCCOCCNC(=O)CC[C@H](NC(=O)CCCCCCCCCCCCCCCCCCC(=O)O)C(=O)O)NC(=O)[C@H](CCC(N)=O)NC(=O)[C@H](C)NC(=O)[C@@H](NC(=O)[C@H](CCCCN)NC(=O)[C@H](CC(=O)O)NC(=O)[C@H](CC(C)C)NC(=O)C(C)(C)NC(=O)[C@@H](NC(=O)[C@H](CO)NC(=O)[C@H](Cc1ccc(O)cc1)NC(=O)[C@H](CC(=O)O)NC(=O)[C@H](CO)NC(=O)[C@@H](NC(=O)[C@H](Cc1ccccc1)NC(=O)[C@@H](NC(=O)CNC(=O)[C@H](CCC(=O)O)NC(=O)C(C)(C)NC(=O)[C@@H](N)Cc1ccc(O)cc1)[C@@H](C)O)[C@@H](C)O)[C@@H](C)CC)[C@@H](C)CC)C(C)C)C(=O)N[C@@H](C)C(=O)NCC(=O)NCC(=O)N1CCC[C@H]1C(=O)O
As a reminder, the Ki is the dissociation constant of the complex between target and ligand, obtained from inhibition or displacement. Lower therefore signals tighter binding. On to B1, for which the Ki with hGIPR is 0.32 nM; with hGLP-1R, 10.9 nM; with hGCGR, > 240 nM.
